PMC11143242 (Nature Communications, 2024)

Columns and labels:
Conditions in all cases: both partners purified
MPXV B6 protein = MPXV B6 protein (Monkeypox virus, clade II …); test: SPR; antibodies (0.5 ug/mL) […]; BIAcore 8K, 25 °C, […]; 1:1 Langmuir model
CPXV CPXV199 = CPXV CPXV199 (Cowpox virus, Brighton Red, UniProt Q8QMP6); test: SPR
VARV B7 = VARV B7 (Variola virus, India-1967, UniProt Q76QZ2); test: SPR
[1] = biological target: MPXV B6 SCR1-2 (T20-E129) (Monkeypox virus, clade II …); test: ELISA
[2] = biological target: MPXV B6 SCR1-2-3-4 (T20-N241) (Monkeypox virus, clade II …); test: ELISA
MPXV B6 (T20-H279) = MPXV B6 (T20-H279) (Monkeypox virus, clade II …); test: ELISA
[3] = biological target: MPXV B6 SCR1-2-3 (T20-K185) (Monkeypox virus, clade II …); test: ELISA

B1: hMB668 (antibody, V domains shown)
VH: QVQLVQSGAEVKKPGSSVKVSCKSSGGTFSDYAINWVRQAPGQGLEWMGRILPIVGVPNYAQKFQGRVTITADKSSSTAYKEVSGLRSEDTAVYYCARRSGINGHGLDVWGQGTTVIVSS
VL: DIVMTQSPLSLPVTPGEPASISCRSSQSLLNTNGYNYLEWYLHKPGQSPQLLIYLGSHRASGVPDRFSGSGSGTDFTLKISRAEPEDVGVYYCMQTLQTQGYTFGQGTKLEIK
notes: also called MAb hMB668; source: Expi293F, transient transfection, purified (Protein A, gel filtration)
6.2 nM: Kd (MPXV B6 protein)
binds: binding result (CPXV CPXV199) | binding result (VARV B7) | binding result [1] | binding result [2] | binding result (MPXV B6 (T20-H279)) | binding result [3]

B2: hMB621 (antibody, V domains shown)
VH: QVQLVQSGGGVVQPGRSLRLSCVASGFSISTYPLHWVRQAPGKGLEWVAVISHDGRNKYYADSVKGRFSISRDNSKNTVYLQMNSLRVEDTAVYYCARAYPYAFDVWGQGTLVTVSS
VL: EIVLTQSPATLSVSPGETATLSCRASQSVRNDLAWYQQKPGQAPRLLIYGASTRASGIPARFSGSGSGTEFTLTISSLQSEDFAIYYCQQYKDWPPWTFGQGTKVEIK
1.9 nM: Kd (MPXV B6 protein)
binds: binding result (CPXV CPXV199) | binding result (VARV B7) | binding result [2] | binding result (MPXV B6 (T20-H279)) | binding result [3]
